Results on one molecule are retold here after patent publication US20250051478A1 (Y MABS THERAPEUTICS, published 2025).

The target of experiment [1] is T1, CD38 (UniProt P28907 43-300, limits assumed).
T1 construct: also called cyclic ADP ribose hydrolase
In words: SPR; YMS9d diluted to 1 mg/ml from the 20 mg/ml solution.

Experiment [2] has as its target T1, CD38. In words: SPR; YMS9d diluted to 1 mg/ml from the 10 mg/ml solution. For orientation: In SPR one partner is held on a chip, and binding of the other changes the refractive index at the surface.

A word on the Kd: it is the constant that tells how readily two partners part at equilibrium. High values mean a looser complex, low ones a tighter complex. In general, koff refers to the first-order rate constant of dissociation. By kon is commonly meant the second-order rate constant of association. Higher therefore signals fast association.

B1: YMS9d (bispecific antibody)
chain: QVQLQESGPGLVKPSETLSLTCTVSGFSLTSYGVHWVRQPPGKGLEWIGVMWRGGSTDYNAAFKSRVTISKDNSKNQVSLKLSSVTAADTAVYYCAKSMITTGFVMDSWGQGTLVTVSSGGGGSGGGGSGGGGSGGGGSGGGGSGGGGSDIQLTQSPSSLSASVGDRVTITCKASEDIYNRLTWYQQKPGKAPKLLISGATSLETGVPSRFSGSGSGKDYTFTISSLQPEDFATYYCQQYWSNPYTFGQGTKLEIKGGGGSGGGGSGGGGSGGGGSHVQLVESGGGLVQPGGSLRLSCAASGFSLTDYGVHWVRQAPGKGLEWLGVIWSGGGTAYNTALISRFTISRDNSKNTLYLQMNSLRAEDTAVYYCARRGSYPYNYFDAWGQGTLVTVSSGGGGSGGGGSGGGGSGGGGSGGGGSGGGGSQAVVTQEPSLTVSPGGTVTLTCGSSTGAVTASNYANWVQQKPGQAPRGLIGGHNNRPPGVPARFSGSLLGGKAALTLLGAQPEDEAEYYCALWYSDHWVIGGGTKLTVLGTPLGDTTHTSGKPLDGEYFTLQIRGRERFEMFRELNEALELKDAQAGKEPGGSGGAP
modifications: Self-assembles into tetramers through the p53 SADA domain; labelled with 125I in Example 8.
notes: also called CD38-SADA construct without disulfide bonds; CD38-SADA
Regarding B1, in the experiment with CD38 [1], binding was put at a Kd of 8.1 nM, the koff was 0.0011 s⁻¹ and the on-rate (kon) was determined as 130000 M⁻¹ s⁻¹. Moreover, in the experiment with CD38 [2], the Kd stood at 7.5 nM, the koff turned out to be 0.0011 s⁻¹ and the kon was found to be 140000 M⁻¹ s⁻¹.
